Consider two molecules from paper PMC8116058 (2021).

Residue numbers refer to the chain shown, from its start.

In assay [1] the target is T1, macrocyclic peptide CP14, fluorescein-labeled (CP14^F) (N-terminal N-chloroacetyl-D-tyrosine joined by a thioether to a cysteine; fluorescein on the side chain of the C-terminal lysine; C-terminal amide). The assay can be described thus: FP; outward-facing, Mg-ATP trapped, detergent-solubilized.
The target in assay [2] is T2, macrocyclic peptide CP12, fluorescein-labeled (CP12^F) (N-terminal N-chloroacetyl-D-tyrosine joined by a thioether to a cysteine; fluorescein on the side chain of the C-terminal lysine; C-terminal amide). The description is as above.
The target in assay [3] is T1, macrocyclic peptide CP14, …. The assay can be described thus: FP; inward-facing, no Mg-ATP, detergent-solubilized.
Assay [4] concerns the target T2, macrocyclic peptide CP12, …. Described as above.

B1: TmrA^E523QB (catalytically reduced variant of TmrAB) (complex)
chain 1: MTEDTYSKAFDRALFARILRYVWPYRLQVVLALLFLLVVTLAAAATPLFFKWAIDLALVPTEPRPLAERFHLLLWISLGFLAVRAVHFAATYGETYLIQWVGQRVLFDLRSDLFAKLMRLHPGFYDRNPVGRLMTRVTSDVDAINQFITGGLVGVIADLFTLVGLLGFMLFLSPKLTLVVLLVAPVLLAVTTWVRLGMRSAYREMRLRLARVNAALQENLSGVETIQLFVKEREREEKFDRLNRDLFRAWVEIIRWFALFFPVVGFLGDFAVASLVYYGGGEVVRGAVSLGLLVAFVDYTRQLFQPLQDLSDKFNLFQGAMASAERIFGVLDTEEELKDPEDPTPIRGFRGEVEFRDVWLAYTPKGVEPTEKDWVLKGVSFRVRPGEKVALVGATGAGKTSVVSLIARFYDPQRGCVFLDGVDVRRYRQEELRRHVGIVLQEPFLFSGTVLDNLRLFDPSVPPERVEEVARFLGAHEFILRLPKGYQTVLGERGAGLSTGEKQLLALVRALLASPDILLILDQATASVDSETEKRLQEALYKAMEGRTSLIIAHRLSTIRHVDRILVFRKGRLVEEGSHEELLAKGGYYAALYRLQFQEA
chain 2: MTGRSAAPLLRRLWPYVGRYRWRYLWAVLAGLVSIFFFVLTPYFLRLAVDAVQAGRGFGVYALAIVASAALSGLLSYAMRRLAVVASRQVEYDLRRDLLHHLLTLDRDFYHKHRVGDLMNRLNTDLSAVREMVGPGILMGSRLSFLVLLAFLSMYAVNARLAFYLTLILPGIFLAMRFLLRLIDRRYREAQEVFDRISTLAQEAFSGIRVVKGYALERRMVAWFQDLNRLYVEKSLALARVEGPLHALLGFLMGFAFLTVLWAGGAMVVRGELSVGELVQFNAYLAQLTWPILGLGWVMALYQRGLTSLRRLFELLDEKPAIRDEDPLPLALEDLSGEVRFEGVGLKRDGRWLLRGLTLTIPEGMTLGITGRTGSGKSLLAALVPRLLDPSEGRVYVGGHEARRIPLAVLRKAVGVAPQEPFLFSETILENIAFGLDEVDRERVEWAARLAGIHEEILAFPKGYETVLGERGITLSGGQRQRVALARALAKRPKILILDDALSAVDAETEARILQGLKTVLGKQTTLLISHRTAALRHADWIIVLDGGRIVEEGTHESLLQAGGLYAEMDRLQKEVEA
Turning to B1, the figures for the Kd in assay [1] and in assay [2] were 50 nM and 350 nM, respectively.

B2: TmrAB (heterodimeric ABC transport complex from Thermus thermophilus, wild type) (complex)
chain 1: B1 chain 1 with Q523E
chain 2: B1 chain 2
Take B2: the dissociation constant Kd in assay [3] stood at 100 nM; in assay [4], 140 nM.

For orientation: Kd means a measure of binding affinity in units of concentration. Read a low Kd as higher affinity.
